These are literature values, as cited in PMC6753016.

Where two headings read alike, the source gives them in different places.

Series [1] concerns the target Factor XIIa (Homo sapiens) (UniProt P00748).
Series [2] addresses Trypsin (Bos taurus) (UniProt P00760).
For series [3], the target named is Cathepsin L (UniProt P07711).
Target sequence in this assay (P07711 114-288, chain 1 of 2): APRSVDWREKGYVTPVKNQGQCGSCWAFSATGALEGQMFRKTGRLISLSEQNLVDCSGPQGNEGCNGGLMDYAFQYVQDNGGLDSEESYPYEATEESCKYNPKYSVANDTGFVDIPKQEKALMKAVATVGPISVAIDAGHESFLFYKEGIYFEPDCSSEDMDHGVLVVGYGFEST
Target sequence in this assay (P07711 292-333, chain 2 of 2): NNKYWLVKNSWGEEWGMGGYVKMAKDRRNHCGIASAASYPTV
Series [4] concerns the target Cathepsin H (UniProt P09668).
Target sequence in this assay (P09668 116-335): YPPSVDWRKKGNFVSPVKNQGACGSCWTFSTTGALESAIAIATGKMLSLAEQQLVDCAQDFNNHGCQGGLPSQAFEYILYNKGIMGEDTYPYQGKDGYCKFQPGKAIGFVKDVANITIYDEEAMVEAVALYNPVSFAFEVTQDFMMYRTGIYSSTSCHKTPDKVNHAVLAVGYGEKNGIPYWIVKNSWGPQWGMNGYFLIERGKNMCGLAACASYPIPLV
Series [5] addresses Cathepsin H (UniProt P09668). This is another data set of the same source.
Target sequence in this assay (P09668 whole entry, looked up): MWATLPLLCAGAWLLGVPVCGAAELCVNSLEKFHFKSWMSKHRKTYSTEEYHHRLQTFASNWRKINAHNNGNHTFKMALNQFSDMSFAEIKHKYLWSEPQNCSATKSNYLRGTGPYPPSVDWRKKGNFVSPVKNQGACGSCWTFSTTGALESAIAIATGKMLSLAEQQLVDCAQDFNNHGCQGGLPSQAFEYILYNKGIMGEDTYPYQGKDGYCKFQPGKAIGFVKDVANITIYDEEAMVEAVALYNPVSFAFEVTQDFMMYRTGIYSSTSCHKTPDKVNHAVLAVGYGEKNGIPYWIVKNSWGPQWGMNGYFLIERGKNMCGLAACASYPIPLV
Series [6] deals with Cathepsin L (UniProt P07711). This is another data set of the same source.
Target sequence in this assay (P07711 292-333): as the sequence (P07711 292-333, chain 2 of 2) above
The target in series [7] is Porcine elastase (Sus scrofa) (UniProt P00772).
Porcine elastase (Sus scrofa), sequence (P00772 27-266): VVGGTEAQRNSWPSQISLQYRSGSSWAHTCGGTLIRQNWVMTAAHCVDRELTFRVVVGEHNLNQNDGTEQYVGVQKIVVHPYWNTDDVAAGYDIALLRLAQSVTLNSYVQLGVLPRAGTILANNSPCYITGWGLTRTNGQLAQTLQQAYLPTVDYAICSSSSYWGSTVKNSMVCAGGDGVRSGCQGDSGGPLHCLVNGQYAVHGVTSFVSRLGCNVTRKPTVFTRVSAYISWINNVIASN
The target of a further series is β-Trypsin (Bos taurus) (UniProt P00760).
β-Trypsin (Bos taurus), sequence (P00760 149-246): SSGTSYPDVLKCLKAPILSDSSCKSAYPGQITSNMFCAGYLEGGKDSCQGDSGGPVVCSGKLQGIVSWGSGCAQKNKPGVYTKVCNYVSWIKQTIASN
Series [8] has as its target Cathepsin B (UniProt P07858).
The target in series [9] is Cathepsin L (UniProt P07711). The source holds these as a separate data set.
Target sequence in this assay (P07711 114-288, chain 1 of 2): as the sequence (P07711 114-288, chain 1 of 2) above
Target sequence in this assay (P07711 292-333, chain 2 of 2): as the sequence (P07711 292-333, chain 2 of 2) above
In series [10] the target is Cathepsin H (UniProt P09668). This is another data set of the same source.
Target sequence in this assay (P09668 116-335): as the sequence (P09668 116-335) above
Series [11] deals with Cathepsin H (UniProt P09668). This is another data set of the same source.
Target sequence in this assay (P09668 whole entry, looked up): as the sequence (P09668 whole entry, looked up) above
In series [12] the target is Cathepsin L (UniProt P07711). This is another data set of the same source.
Target sequence in this assay (P07711 292-333): as the sequence (P07711 292-333, chain 2 of 2) above
For series [13], the target named is Cathepsin B (UniProt P07858). This is another data set of the same source.
The target of series [14] is Kallikrein 14 (Homo sapiens) (UniProt Q9P0G3).
Kallikrein 14 (Homo sapiens), sequence (Q9P0G3 41-267): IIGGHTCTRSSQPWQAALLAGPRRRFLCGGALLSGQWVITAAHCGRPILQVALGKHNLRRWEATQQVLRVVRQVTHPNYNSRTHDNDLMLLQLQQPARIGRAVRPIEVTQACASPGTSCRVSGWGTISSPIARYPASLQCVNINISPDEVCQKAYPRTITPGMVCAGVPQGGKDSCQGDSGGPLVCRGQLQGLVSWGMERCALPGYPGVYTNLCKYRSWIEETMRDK
Series [15] has as its target Trypsin (Bos taurus) (UniProt P00760). This is another data set of the same source.
Series [16] addresses Kallikrein 5 (Homo sapiens) (UniProt Q9Y337).
For series [17], the target named is Matriptase (Homo sapiens) (UniProt Q9Y5Y6).
Matriptase (Homo sapiens), sequence (Q9Y5Y6 whole entry): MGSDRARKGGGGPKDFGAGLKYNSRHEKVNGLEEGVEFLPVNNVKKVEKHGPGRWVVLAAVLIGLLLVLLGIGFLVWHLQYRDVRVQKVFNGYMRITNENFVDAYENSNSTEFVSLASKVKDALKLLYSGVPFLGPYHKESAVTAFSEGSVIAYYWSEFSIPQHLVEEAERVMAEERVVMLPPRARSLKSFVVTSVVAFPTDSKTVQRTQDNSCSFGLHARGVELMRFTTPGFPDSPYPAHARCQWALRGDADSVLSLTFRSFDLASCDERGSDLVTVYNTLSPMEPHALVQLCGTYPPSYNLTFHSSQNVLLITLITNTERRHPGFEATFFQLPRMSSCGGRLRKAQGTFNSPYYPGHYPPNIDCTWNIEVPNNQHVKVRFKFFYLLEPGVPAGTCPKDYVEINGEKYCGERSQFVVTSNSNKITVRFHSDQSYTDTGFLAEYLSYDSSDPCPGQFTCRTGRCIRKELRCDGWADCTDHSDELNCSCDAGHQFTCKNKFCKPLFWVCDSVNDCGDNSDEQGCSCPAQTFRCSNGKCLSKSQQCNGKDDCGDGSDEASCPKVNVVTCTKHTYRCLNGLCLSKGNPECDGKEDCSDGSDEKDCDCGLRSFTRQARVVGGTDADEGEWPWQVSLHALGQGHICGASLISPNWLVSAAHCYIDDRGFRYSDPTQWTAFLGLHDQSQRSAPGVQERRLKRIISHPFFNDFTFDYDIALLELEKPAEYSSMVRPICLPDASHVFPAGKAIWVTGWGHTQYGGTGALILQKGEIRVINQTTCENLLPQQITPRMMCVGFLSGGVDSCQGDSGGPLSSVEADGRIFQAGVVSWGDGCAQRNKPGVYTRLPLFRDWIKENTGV
Series [18] has as its target Kallikrein 7 (Homo sapiens) (UniProt P49862).
Series [19] has as its target Cathepsin G (Homo sapiens) (UniProt P08311).

Corn cystatin-I, sequence (P31726 25-135): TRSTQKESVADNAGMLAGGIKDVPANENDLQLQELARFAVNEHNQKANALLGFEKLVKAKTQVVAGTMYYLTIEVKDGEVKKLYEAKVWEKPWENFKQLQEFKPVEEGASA
Corn Hageman factor inhibitor, sequence (P01088 29-138): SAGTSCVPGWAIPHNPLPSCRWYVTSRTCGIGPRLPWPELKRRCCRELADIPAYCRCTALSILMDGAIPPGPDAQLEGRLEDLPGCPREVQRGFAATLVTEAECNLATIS
Trypsin (Bos taurus), sequence (P00760 149-246): as the sequence (P00760 149-246) above
Kallikrein 5 (Homo sapiens), sequence (Q9Y337 23-293): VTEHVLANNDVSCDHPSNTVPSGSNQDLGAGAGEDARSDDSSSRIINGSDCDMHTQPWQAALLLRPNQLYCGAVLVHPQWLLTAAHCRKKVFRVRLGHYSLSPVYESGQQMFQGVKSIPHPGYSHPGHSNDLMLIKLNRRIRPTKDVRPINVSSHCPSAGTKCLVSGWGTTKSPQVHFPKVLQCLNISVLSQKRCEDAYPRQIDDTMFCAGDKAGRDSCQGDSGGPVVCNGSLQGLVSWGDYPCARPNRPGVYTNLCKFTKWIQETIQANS
MTI-2, sequence (P26780 31-93): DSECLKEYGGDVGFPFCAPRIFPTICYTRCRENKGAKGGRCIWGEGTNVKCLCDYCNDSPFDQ
Kallikrein 7 (Homo sapiens), sequence (P49862 30-253): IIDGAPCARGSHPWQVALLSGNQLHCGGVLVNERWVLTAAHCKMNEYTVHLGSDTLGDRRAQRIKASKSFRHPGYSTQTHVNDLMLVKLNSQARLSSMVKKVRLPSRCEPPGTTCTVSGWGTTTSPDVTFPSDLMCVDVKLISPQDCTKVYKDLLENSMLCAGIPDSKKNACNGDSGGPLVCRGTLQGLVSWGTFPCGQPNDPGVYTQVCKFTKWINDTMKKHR
Cathepsin G (Homo sapiens), sequence (P08311 21-243): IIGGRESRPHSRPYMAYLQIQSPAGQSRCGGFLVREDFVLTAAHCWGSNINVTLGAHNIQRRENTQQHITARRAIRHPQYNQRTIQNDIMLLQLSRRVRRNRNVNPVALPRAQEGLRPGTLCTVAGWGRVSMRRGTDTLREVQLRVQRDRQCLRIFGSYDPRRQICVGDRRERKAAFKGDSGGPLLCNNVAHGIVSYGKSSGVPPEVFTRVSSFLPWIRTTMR
Factor XIIa (Homo sapiens), sequence (P00748 whole entry, looked up): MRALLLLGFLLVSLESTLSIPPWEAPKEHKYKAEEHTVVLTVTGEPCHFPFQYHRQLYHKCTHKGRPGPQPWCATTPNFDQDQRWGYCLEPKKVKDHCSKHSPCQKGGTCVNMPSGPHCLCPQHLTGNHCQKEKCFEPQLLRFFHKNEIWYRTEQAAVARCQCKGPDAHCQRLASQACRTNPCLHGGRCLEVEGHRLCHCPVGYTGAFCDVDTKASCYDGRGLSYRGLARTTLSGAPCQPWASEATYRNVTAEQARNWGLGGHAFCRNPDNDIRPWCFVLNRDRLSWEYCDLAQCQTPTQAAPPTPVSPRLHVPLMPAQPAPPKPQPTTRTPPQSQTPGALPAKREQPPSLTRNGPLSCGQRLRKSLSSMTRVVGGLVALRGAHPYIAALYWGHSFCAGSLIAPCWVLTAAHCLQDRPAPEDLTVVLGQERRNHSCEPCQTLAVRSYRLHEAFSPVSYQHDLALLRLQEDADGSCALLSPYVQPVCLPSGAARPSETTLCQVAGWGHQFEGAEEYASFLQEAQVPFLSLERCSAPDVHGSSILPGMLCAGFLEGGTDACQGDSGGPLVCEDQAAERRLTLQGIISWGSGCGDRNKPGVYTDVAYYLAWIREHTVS
MCEI-III, sequence (P10296 2-31): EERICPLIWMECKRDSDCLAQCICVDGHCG

As usually defined, the Ki is a dissociation constant, usually derived from enzyme kinetics or from competition with a known ligand. As for “Corn Hageman factor inhibitor (from UniProt P01088)”, the Ki in series [1] is 2 nM; with Trypsin (Bos taurus) [2] it was 23 nM.

As for Corn cystatin-I (from UniProt P31726), the Ki was 17 nM in the series with Cathepsin L [3], 5.7 nM with Cathepsin H [4], 5.7 nM with Cathepsin H [5] and 17 nM with Cathepsin L [6].

For the substance MCEI-III (from UniProt P10296), in series [7], the Ki is 4 nM.

In the case of MTI-2 (from UniProt P26780), the Ki with β-Trypsin (Bos taurus) was 0.01 nM.

As for Oryzacystatin-I (from UniProt P09229), the Ki in the series with Cathepsin B [8] is 79 nM; in the series with Cathepsin L [9], 0.73 nM; with Cathepsin H [10], 1000 nM; in the series with Cathepsin H [11], 1000 nM; with Cathepsin L [12], 0.73 nM; with Cathepsin B [13], 79 nM.

With SFTI-I (from UniProt Q4GWU5), the Ki is 25 nM in [14]; 0.17 nM with Trypsin (Bos taurus) [15]; 140 nM in series [16]; 200 nM in [17]; 740 nM in series [18]; 730 nM in [19].
